Laboratory results reported in paper PMC2114230.

Experiments:
[1] = target: microtubules of rat brain tubulin (rat) (UniProt P68370); assay: co-sedimentation
[2] = target: actin filaments of rabbit skeletal muscle actin (rabbit) (UniProt P68135); assay: co-sedimentation

| percent of total axolinin sedimented [1] [%] | percent of total 255-kD protein sedimented [2] [%] | Substance |
| --- | --- | --- |
| 70 |  | axolinin (260-kD protein) of squid giant axon (natural protein) |
|  | 62 | 255-kD protein of squid giant axon (natural protein) |
